Results on 7 substances are retold here after patent US20250320281A1.

Common to all, as to test: cell-based or functional assay
Experiment [1] concerns the target HIV-1 94UG114 envelope glycoprotein (Env) on pseudovirus (HIV-1 (isolate 94UG114, clade D)).
Experiment [2] addresses HIV-1 CMU02 envelope glycoprotein (Env) on pseudovirus (HIV-1).
Experiment [3] has as its target HIV-1 Env of isolate 92UG024 (clade D pseudovirus) (HIV-1).
For experiment [4], the target named is HIV-1 Env of isolate 97ZA012 (clade C) (HIV-1 isolate 97ZA012).
Experiment [5] deals with HIV-1 Env of isolate MGRM-D-001 (clade D pseudovirus) (HIV-1).
Experiment [6] addresses HIV-1 Env of isolate MGRM-D-004 (clade D pseudovirus) (HIV-1).
For experiment [7], the target named is HIV-1 Env of isolate MGRM-D-011 (clade D pseudovirus) (HIV-1).
For experiment [8], the target named is HIV-1 Env of isolate TRJ0.58 (Acute), clade B, on pseudovirus (HIV-1).
The target of experiment [9] is HIV-1 Env of pseudovirus MGRM-Chronic-B-010 (HIV-1).
Experiment [10] has as its target HIV-1 Env of pseudovirus MGRM-Chronic-B-017 (HIV-1).
Experiment [11] addresses HIV-1 Env of pseudovirus MGRM-F1-022 (HIV-1).
Experiment [12] concerns the target HIV-1 Env of pseudovirus MGRM-G-017 (HIV-1, clade G isolate MGRM-G-017).
Experiment [13] concerns the target HIV-1 Env of pseudovirus MGRM-G-019 (HIV-1, clade G isolate MGRM-G-019).
For experiment [14], the target named is HIV-1 envelope glycoprotein (Env) of isolate 92RW009, clade A (HIV-1).
Experiment [15] deals with HIV-1 envelope glycoprotein (Env) of isolate 92RW020, clade A (HIV-1).
Experiment [16] addresses HIV-1 envelope glycoprotein (Env) of isolate 92UG037, clade A (HIV-1).
Experiment [17] deals with HIV-1 envelope glycoprotein (Env) of isolate MGRM-A-002, clade A (HIV-1).
Experiment [18] has as its target HIV-1 envelope glycoprotein (Env) of isolate MGRM-A-004, clade A (HIV-1).
The target of experiment [19] is HIV-1 Env of isolate 6535.3 (HIV-1).
Experiment [20] deals with HIV-1 Env of isolate 92WR024 (HIV-1).
Experiment [21] addresses HIV-1 Env of isolate 93IN905 (subtype C) (HIV-1).
The target in experiment [22] is HIV-1 Env of isolate 93UG077 (HIV-1).
The target in experiment [23] is HIV-1 Env of isolate APV-17 (HIV-1).
For experiment [24], the target named is HIV-1 Env of isolate MG RM-D-004 (HIV-1).
For experiment [25], the target named is HIV-1 Env of isolate MG RM-D-012 (HIV-1).
The target in experiment [26] is HIV-1 Env of isolate MG RM-D-021 (HIV-1).
The target in experiment [27] is HIV-1 Env of isolate MGRM-A-001 (HIV-1).
Experiment [28] has as its target HIV-1 Env of isolate MGRM-AG-009 (subtype AG) (HIV-1).
For experiment [29], the target named is HIV-1 Env of isolate MGRM-Chronic-B-001 (subtype B) (HIV-1).
Experiment [30] deals with HIV-1 Env of isolate MGRM-Chronic-B-004 (subtype B) (HIV-1).
In experiment [31] the target is HIV-1 Env of isolate MGRM-Chronic-B-018 (subtype B) (HIV-1).
Experiment [32] concerns the target HIV-1 Env of pseudovirus isolate MGRM-G-028 (HIV-1).
Experiment [33] has as its target HIV-1 envelope glycoprotein (Env) of isolate MGRM-C-014 (HIV-1).
For experiment [34], the target named is HIV-1 envelope glycoprotein (Env) of isolate MGRM-C-019 (HIV-1).
Experiment [35] deals with HIV-1 envelope glycoprotein (Env) of isolate MGRM-C-028 (HIV-1).
Experiment [36] deals with HIV-1 JRFL Env (pseudovirus) (HIV-1).
Experiment [37] addresses HIV-1 MGRM-C-028 Env (pseudovirus, clade C) (HIV-1).

5345_I01 (PGT-137) (antibody), sequence (VH): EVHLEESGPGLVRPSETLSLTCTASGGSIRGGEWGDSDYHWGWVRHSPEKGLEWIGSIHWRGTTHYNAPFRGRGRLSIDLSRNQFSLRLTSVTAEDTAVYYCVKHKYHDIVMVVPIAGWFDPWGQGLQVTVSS
5345_I01 (PGT-137) (antibody), sequence (VL): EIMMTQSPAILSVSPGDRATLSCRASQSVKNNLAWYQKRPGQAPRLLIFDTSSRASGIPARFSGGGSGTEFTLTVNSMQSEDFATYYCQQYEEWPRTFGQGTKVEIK
5329_C19 (PGT-136) (antibody), sequence (VH): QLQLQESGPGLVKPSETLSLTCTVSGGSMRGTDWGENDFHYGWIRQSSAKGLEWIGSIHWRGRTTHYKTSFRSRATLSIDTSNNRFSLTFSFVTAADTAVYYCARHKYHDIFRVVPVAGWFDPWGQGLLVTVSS
5329_C19 (PGT-136) (antibody), sequence (VL): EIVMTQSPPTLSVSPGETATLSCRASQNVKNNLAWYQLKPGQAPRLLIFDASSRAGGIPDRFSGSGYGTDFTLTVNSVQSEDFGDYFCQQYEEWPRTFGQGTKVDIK

Regarding 2F5 (antibody), the IC50 (µg/ml), pseudovirus neutralization was above 50 µg/mL in experiment [1]; 0.95 µg/mL in [3]; above 50 µg/mL in [4]; 0.63 µg/mL in experiment [5]; 2.3 µg/mL in experiment [6]; above 50 µg/mL in experiment [7]. For the same substance, the IC50 (µg/ml), pseudovirus neutralization is above 50 µg/mL in experiment [8]; 0.96 µg/mL in [9]; above 50 µg/mL in [10]; 1.26 µg/mL in experiment [11]; 0.6 µg/mL in experiment [12]; above 50 µg/mL in experiment [13]. The IC50 (µg/ml), pseudovirus neutralization was 39.1 µg/mL in experiment [14]; 3.36 µg/mL in experiment [15]; 3.24 µg/mL in [16]; above 50 µg/mL in [17]; 7.49 µg/mL in experiment [18]. The substance also had an IC50, pseudovirus neutralization in [2] of 0.38 µg/mL.
Regarding 2G12 (antibody), the IC50 (µg/ml), pseudovirus neutralization is 13.9 µg/mL in experiment [1]; 0.42 µg/mL in experiment [3]; above 50 µg/mL in experiment [4]; above 50 µg/mL in experiment [5]; above 50 µg/mL in [6]; 1.5 µg/mL in experiment [7]. For the same substance, the IC50 (µg/ml), pseudovirus neutralization in experiment [8] is above 50 µg/mL; in experiment [9], 1.5 µg/mL; in experiment [10], above 50 µg/mL; in experiment [11] it was above 50 µg/mL; in experiment [12], above 50 µg/mL; in experiment [13] it was 31 µg/mL. In addition, the IC50 (µg/ml), pseudovirus neutralization in experiment [14] is 26.1 µg/mL; in experiment [15], 0.48 µg/mL; in experiment [16] it was 45.2 µg/mL; in experiment [17], above 50 µg/mL; in [18], above 50 µg/mL. The substance also displayed an IC50, pseudovirus neutralization in experiment [2] above 50 µg/mL.
Regarding 5136_H01 (PGT-131) (antibody), the neutralization IC50 in experiment [19] is 0.056 µg/mL; in experiment [23] it was above 50 µg/mL. Moreover, the IC50 in experiment [20], in [22] and in experiment [27] was above 50 µg/mL each time. In addition, the IC50 neutralization in experiment [21] was 0.177 µg/mL; in [29] it was above 50 µg/mL; in experiment [30] it was 0.04 µg/mL; in [31], above 50 µg/mL. For the same substance, the IC50 (µg/mL), pseudovirus neutralization in experiment [24] was 2.01 µg/mL; in experiment [25] it was above 50 µg/mL; in experiment [26], 0.106 µg/mL; in experiment [28], above 50 µg/mL; in experiment [32], 0.466 µg/mL; in experiment [33], above 50 µg/mL. Moreover, the IC50 (µg/mL), pseudovirus neutralization in [34] was 0.021 µg/mL; in experiment [35] it was above 50 µg/mL.
As for 5147_N06 (PGT-130) (antibody), the neutralization IC50 in [19] amounted to 0.031 µg/mL; in experiment [23], 10.7 µg/mL. Also, the IC50 in experiment [20] was above 50 µg/mL; in experiment [22] it was 21.4 µg/mL; in experiment [27] it was above 50 µg/mL. The IC50 neutralization in [21] is 0.02 µg/mL; in experiment [29], above 50 µg/mL; in experiment [30] it was 0.01 µg/mL; in experiment [31], 31.9 µg/mL; in experiment [37], above 10 µg/mL. In addition, the IC50 (µg/mL), pseudovirus neutralization was 1.21 µg/mL in [24]; above 50 µg/mL in [25]; 0.156 µg/mL in experiment [26]; 9.46 µg/mL in experiment [28]; 0.074 µg/mL in experiment [32]; above 50 µg/mL in [33]. The IC50 (µg/mL), pseudovirus neutralization in experiment [34] was 0.01 µg/mL; in experiment [35], above 50 µg/mL. In addition, the Neutralization by PGT-130, IC50 in [36] is 0.0346 µg/mL. The Neutralization by PGT-130, IC80 in experiment [36] is 0.751 µg/mL. The Neutralization by PGT-130, IC90 in experiment [36] was determined as 5.72 µg/mL. For the same substance, the Neutralization by PGT-130, IC95 in experiment [36] is above 10 µg/mL. The same substance gave a neutralization IC50 (pseudovirus) in experiment [36] of 0.0346 µg/mL.
Take 5329_C19 (PGT-136) (antibody): the neutralization IC50 in experiment [19] and in [23] was above 50 µg/mL in each case. Moreover, the IC50 in [20], in [22] and in experiment [27] was above 50 µg/mL throughout. Besides, the IC50 neutralization in experiment [21] is 0.011 µg/mL; in experiment [29], above 50 µg/mL; in [30] it was above 50 µg/mL; in experiment [31] it was above 50 µg/mL; in experiment [37] it was above 10 µg/mL. For the same substance, the IC50 (µg/mL), pseudovirus neutralization in experiment [24], in experiment [25], in experiment [26], in experiment [28], in [32] and in experiment [33] was above 50 µg/mL in each case. Moreover, the IC50 (µg/mL), pseudovirus neutralization came to 20.1 µg/mL in experiment [34] and 33.7 µg/mL in [35]. The substance further yielded an IC50 (neutralizing activity, pseudovirus) in experiment [36] above 10 µg/mL.
Regarding 5343_B08 (PGT-135) (antibody), the neutralization IC50 in experiment [19] and in experiment [23] was above 50 µg/mL in each case. Further, the IC50 in experiment [20], in experiment [22] and in [27] was above 50 µg/mL in each case. The IC50 neutralization in [21] is 0.011 µg/mL; in [29] it was above 50 µg/mL; in experiment [30], above 50 µg/mL; in [31], above 50 µg/mL; in experiment [37] it was 2.16 µg/mL. In addition, the IC50 (µg/mL), pseudovirus neutralization in experiment [24], in experiment [25], in experiment [26], in experiment [28], in [32] and in experiment [33] was above 50 µg/mL in each case. Moreover, the IC50 (µg/mL), pseudovirus neutralization in [34] was found to be 0.264 µg/mL; in [35] it was 1.47 µg/mL. Moreover, the IC50 (neutralizing activity, pseudovirus) in [36] is above 10 µg/mL.
In the case of 5345_I01 (PGT-137) (antibody), the neutralization IC50 in [19] and in experiment [23] was above 50 µg/mL in each case. Besides, the IC50 in experiment [20], in experiment [22] and in [27] was above 50 µg/mL each time. For the same substance, the IC50 neutralization in experiment [21] was 0.042 µg/mL; in experiment [29] it was above 50 µg/mL; in [30] it was above 50 µg/mL; in [31], above 50 µg/mL. Also, the IC50 (µg/mL), pseudovirus neutralization in [24], in experiment [25], in experiment [26], in experiment [28], in experiment [32] and in experiment [33] was above 50 µg/mL each time. Besides, the IC50 (µg/mL), pseudovirus neutralization in experiment [34] and in experiment [35] was above 50 µg/mL in each case.
